Measurements from article PMC12724136, “Design of antibody structure-guided epitope vaccines in silico to induce potent immune responses against emerging viruses” (Journal of Virology, 2025).

Key:
TiLV-positive antibody = assay: Depletion of TiLV-positive antibodies by epitope peptides (ELISA); assay type: binding, tilapia; settings: TiLV-positive antibody diluted 800-fold, 10 depletion cycles
Procedure: The epitope peptide to be detected was coated on the ELISA plate at 37°C for 2 h. After washing with PBST, it was blocked with 2% skim milk powder for 2 h to reduce non-specific binding. The TiLV-positive antibody was diluted 800-fold and added to the wells at 100 µL per well. After incubation at room temperature for 20 min, the liquid was aspirated. The ELISA plate was briefly washed, and then, the serum was added again. This process was repeated 10 times, and then, the serum was collected. An ELISA was performed on the collected serum to detect the level of tilapia IgM. Blank and non-depleted negative controls were set up in the experiment. The depletion rate was calculated as follows: Depletion rate = (OD450 of non-depleted sample − OD450 of detected sample) / OD450 of non-depleted sample × 100%.

scFv1 = assay: Western blot, binding of S3 epitope peptide and mutants to GST-scFv1; parameters: species or system Nile tilapia (Oreochromis niloticus); settings: PVDF membrane with GST-scFv1 incubated with S3 proteins 37°C 2 h; 6×His tag antibody
Procedure: The PET-N-GST-scFv1 plasmid was constructed using seamless cloning technology (Vazyme), and the protein was obtained through a prokaryotic expression system. The scFv1 protein was purified using GST resin (Beyotime) and stored after lyophilization. Similarly, S3-WT, S3-MuT-^Y386^A, S3-MuT-^R393^A, S3-MuT-^L398^A, and S3-MuT were expressed in prokaryotes using the pET32a plasmid. In the Western blot experiment, after blocking, the PVDF membrane containing GST-scFv1 blots was incubated with each of the five S3 proteins at 37°C for 2 h. Subsequently, the anti-6×His tag mouse mAb was used as the primary antibody, and HRP-conjugated goat anti-mouse IgG was used as the secondary antibody. The ECL color development steps were performed as described above.

tilapia IgM = assay: Serum antibody levels of tilapia after immunization with epitope peptides (ELISA); assay type: in vivo, Nile tilapia (Oreochromis niloticus); settings: 20 µg peptide i.m. with Freund's adjuvant, 7-28 days
Text: Epitope vaccines usually need to be modified with Freund’s adjuvant (Beyotime) before immunization. Briefly, for a single immunization, the epitope peptide is mixed with an equal dose of complete Freund’s adjuvant and then administered to tilapia. For booster immunization, an equal dose of incomplete Freund’s adjuvant is fused with the epitope peptide before vaccination. For the S1, S3, and S10 epitope vaccine immunization programs, healthy Oreochromis niloticus were divided into six groups (70 fish per group) and vaccinated with 20 µg of peptide vaccine by intramuscular injection. During the 1–4 week immunization period, we collected four fish serum samples weekly for immunological analysis.
In the immunization experiments based on the P30-designed vaccine, healthy Nile tilapia were divided into four groups (70 fish per group) and injected intramuscularly with 20 µg of peptide vaccine to complete the primary immunization. After 14 days, the same dose of vaccine was administered again to complete the booster immunization. Serum and tissue samples were collected from 4 fishes in each group weekly after the primary immunization, for a total of 6 weeks. Furthermore, a PBS control was incorporated into both immunization experiments, and the immunization process was conducted in accordance with the aforementioned methodology.
Serum antibody levels after immunization were determined by indirect ELISA. Specifically, serum samples were diluted appropriately, coated to enzyme-labeled plates, and incubated overnight at 4°C. After being washed three times with PBST buffer, each well was incubated with mouse anti-tilapia IgM mAb (1:5,000) at 37°C for 1 h. After washing, each well was incubated with HRP-conjugated goat anti-mouse IgG (1:5,500) for an additional hour. Color development was carried out as described above.

TiLV [1] = assay: Cellular fluorescence analysis of binding between scFv1 and TiLV in CIK cells; assay type: cell-based; settings: GST-scFv1 incubated 24 h with TiLV-infected CIK cells
Procedure: After being cultured for 48 h, CIK cells grew into a monolayer and were then continuously incubated with TiLV virus at 28°C for 72 h. Subsequently, the culture medium was replaced, and the cells were incubated with GST-scFv1 protein for 24 h to ensure binding to TiLV particles. The cells were fixed with 4% paraformaldehyde at room temperature for 10 min and then incubated with immunostaining permeabilization buffer with Triton X-100 for 10 min. Subsequently, the GST mouse mAb (1:500, Beyotime) was used as the primary antibody and incubated with CIK cells at 4°C overnight, and FITC-labeled goat anti-mouse IgG (1:500, Beyotime) was used as the secondary antibody. After DAPI staining, the cells were observed under a fluorescence microscope. Cells that were not incubated with GST-scFv1 protein served as the control.

TiLV [2] = assay: In vivo protection study of scFv1 against TiLV infection in tilapia; parameters: species or system Nile tilapia (Oreochromis niloticus); settings: scFv1 10 μg/g i.p. 12 h after TiLV
Procedure: Healthy Nile tilapia (Oreochromis niloticus) with a body weight of approximately 3.2±0.6 g were selected. After being temporarily cultured in a circulating water aquaculture system, they were randomly divided into a neutralization experimental group, a virus control group, and a BSA control group, with 30 fish in each group. In the experimental group, 50 μL of TiLV virus suspension (8×10^3 copies/μL) was injected intraperitoneally. Twelve hours later, a solution of scFv1 diluted in PBS at a dose of 10 μg/g was injected intraperitoneally. In the BSA control group, after injecting the same dose of TiLV, BSA solution of the same concentration was used instead of the scFv1. In the virus control group, only virus was injected. Meanwhile, a blank control was set up. After the injection, the mortality of tilapia was observed and recorded continuously for 10 days, and the cumulative mortality rate was calculated.

TiLV [3] = assay: Indirect ELISA, affinity of scFv for TiLV; assay type: binding, tilapia lake virus (TiLV)
Procedure: The scFv affinity assay was performed by indirect ELISA. The virus (4 × 10^3 copies/μL) was incubated overnight at 4°C after being coated in the wells. After blocking with 5% skim milk, 100 µL of scFv1 and scFv3 proteins at the same concentrations (0.01–100 μg/mL) were added and incubated. Meanwhile, BSA proteins with the same concentration gradient were used as controls. The primary and secondary antibodies were 6×His tag mouse mAb and HRP-conjugated goat anti-mouse IgG, respectively, following the previous protocol. The color development and readings were performed as described above. The scFvs obtained from both the prokaryotic and eukaryotic expression systems were verified for their affinity to TiLV. Meanwhile, the BSA protein was used as a negative control.

Molecule: GYQLASEIRGTIPLSS [S3WT]
- TiLV-positive antibody depletion rate (TiLV-positive antibody): ~70%
- binding to GST-scFv1 by Western blot (scFv1): able to bind
- immunogenicity (serum antibody titer) after single immunization (tilapia IgM): highest immunogenicity

B1: scFv1: tilapia-derived single-chain antibody fragment with high affinity for TiLV, from phage library (protein)
scFv: MSHRLTCAYSGFSSDIHAVWVRQAAGKGLEWIAYISDSSAYIYYSQSVRGRFTISRDNSRKQVYLQMNSLTTEDSAVYYCTREGSGFAFDYWGKGTGGGGSGGGGSGGGGSVTISATGSSNIGADLSWYLQKTGETPKLLIYKASTRSSGTPPRFSGSTSGSQYTLTISGVQAEDAGDYYCLGDHGGGALTFGGGTK
modifications: left off: 6×His, end not stated, kept | thioredoxin (from the vector pET32a), end not stated, state not stated
- binding to TiLV on infected CIK cells (green fluorescence) (TiLV [1]): had bound to TiLV
- increase of the survival rate of TiLV-infected tilapia (TiLV [2]): ~30%
- EC50 of the scFv expressed in CHO cells that binds to TiLV (TiLV [3]; indirect ELISA, scFv from CHO expression system): 2.098 µg/mL
- EC50 for the binding of scFv to TiLV (TiLV [3]; indirect ELISA, scFv from prokaryotic expression, coated virus 4 × 10^3 copies/μL, scFv 0.01–100 μg/mL): 33.06 µg/mL
- EC50 of scFv1 fold lower than that of scFv3 (TiLV [3]; prokaryotic expression, binding to TiLV): 3.22 fold
